Measurements as given in US20180264123A1 (UNIVERSITY OF MIYAZAKI, published 2018).
Bridge positions count the residues as written; N and C are the ends. Xyl‑4‑branched CH3O‑PEG (40k)‑CH2 = xylose skeleton-containing 4-branched CH3O-PEG (40k)-CH2 (alkylamine-linked PEG, 40k)

Biological target: AM receptor
Assay: cell-based or functional assay

Row | Binder | Intracellular cAMP concentration-increasing effect (%) vs h.AM (1-52); 10^-8 mol/L, HEK293 cells
1 | CH3O-PEG (30k)-(CH2)2-CH2-^αNH-(h.AM (1-52)) (disulfide 16-21) peptide: {CH3O‑PEG (30k)‑(CH2)2‑CH2‑}-YRQSMNNFQGLRSFGCRFGTCTVQKLAHQIYQFTDKDKDNVAPRSKISPQGY-NH2 | 100%
2 | {CH3O‑PEG (5k)‑(CH2)2‑CH2‑}-NNFQGLRSFGCRFGTCTVQKLAHQIYQFTDKDKDNVAPRSKISPQGY-NH2 (disulfide 11-16) [CH3O-PEG (5k)-(CH2)2-CH2-^αNH-(h.AM (6-52))] | 90%
3 | {GL‑2‑branched CH3O‑PEG (40k)‑CO‑}-CRFGTCTVQKLAHQIYQFTDKDKDNVAPRSKISPQGY-NH2 (disulfide 1-6) [GL-2-branched CH3O-PEG (40k)-CO-^αNH-(h.AM (16-52))] | 61%
4 | GL-2-branched CH3O-PEG (80k)-CH2-^αNH-(h.AM (1-52)) (disulfide 16-21) peptide: {GL‑2‑branched CH3O‑PEG (80k)‑CH2‑}-YRQSMNNFQGLRSFGCRFGTCTVQKLAHQIYQFTDKDKDNVAPRSKISPQGY-NH2 | 94%
5 | GL-4-branched CH3O-PEG (40k)-CO-^αNH-(h.AM (1-52)) (disulfide 16-21) peptide: {GL‑4‑branched CH3O‑PEG (40k)‑CO‑}-YRQSMNNFQGLRSFGCRFGTCTVQKLAHQIYQFTDKDKDNVAPRSKISPQGY-NH2 | 85%
6 | {GL‑2‑branched CH3O‑PEG (40k)‑CH2‑}-NNFQGLRSFGCRFGTCTVQKLAHQIYQFTDKDKDNVAPRSKISPQGY-NH2 (disulfide 11-16) [GL-2-branched CH3O-PEG (40k)-CH2-^αNH-(h.AM (6-52))] | 77%
7 | {GL‑2‑branched CH3O‑PEG (20k)‑CO‑}-NNFQGLRSFGCRFGTCTVQKLAHQIYQFTDKDKDNVAPRSKISPQGY-NH2 (disulfide 11-16) [GL-2-branched CH3O-PEG (20k)-CO-^αNH-(h.AM (6-52))] | 99%
8 | CH3O-PEG (20k)-CO-^αNH-(h.AM (1-52)) (disulfide 16-21) peptide: {CH3O‑PEG (20k)‑CO‑}-YRQSMNNFQGLRSFGCRFGTCTVQKLAHQIYQFTDKDKDNVAPRSKISPQGY-NH2 | 100%
9 | {CH3O‑PEG (5k)‑(CH2)2‑CH2‑}-CRFGTCTVQKLAHQIYQFTDKDKDNVAPRSKISPQGY-NH2 (disulfide 1-6) [CH3O-PEG (5k)-(CH2)2-CH2-^αNH-(h.AM (16-52))] | 39%
10 | {GL‑4‑branched CH3O‑PEG (40k)‑CO‑}-NNFQGLRSFGCRFGTCTVQKLAHQIYQFTDKDKDNVAPRSKISPQGY-NH2 (disulfide 11-16) [GL-4-branched CH3O-PEG (40k)-CO-^αNH-(h.AM (6-52))] | 83%
11 | GL-2-branched CH3O-PEG (60k)-CH2-^αNH-(h.AM (1-52)) (disulfide 16-21) peptide: {GL‑2‑branched CH3O‑PEG (60k)‑CH2‑}-YRQSMNNFQGLRSFGCRFGTCTVQKLAHQIYQFTDKDKDNVAPRSKISPQGY-NH2 | 99%
12 | GL-2-branched CH3O-PEG (40k)-CO-^αNH-(h.AM (1-52)) (disulfide 16-21) peptide: {GL‑2‑branched CH3O‑PEG (40k)‑CO‑}-YRQSMNNFQGLRSFGCRFGTCTVQKLAHQIYQFTDKDKDNVAPRSKISPQGY-NH2 | 87%
13 | {GL‑2‑branched CH3O‑PEG (20k)‑CO‑}-CRFGTCTVQKLAHQIYQFTDKDKDNVAPRSKISPQGY-NH2 (disulfide 1-6) [GL-2-branched CH3O-PEG (20k)-CO-^αNH-(h.AM (16-52))] | 96%
14 | GL-2-branched CH3O-PEG (40k)-CH2-^αNH-(h.AM (1-52)) (disulfide 16-21) peptide: {GL‑2‑branched CH3O‑PEG (40k)‑CH2‑}-YRQSMNNFQGLRSFGCRFGTCTVQKLAHQIYQFTDKDKDNVAPRSKISPQGY-NH2 | 96%
15 | {CH3O‑PEG (5k)‑(CH2)2‑CH2‑}-LRSFGCRFGTCTVQKLAHQIYQFTDKDKDNVAPRSKISPQGY-NH2 (disulfide 6-11) [CH3O-PEG (5k)-(CH2)2-CH2-^αNH-(h.AM (11-52))] | 80%
16 | {GL‑2‑branched CH3O‑PEG (20k)‑CO‑}-LRSFGCRFGTCTVQKLAHQIYQFTDKDKDNVAPRSKISPQGY-NH2 (disulfide 6-11) [GL-2-branched CH3O-PEG (20k)-CO-^αNH-(h.AM (11-52))] | 104%
17 | CH3O-PEG (5k)-(CH2)5-CO-^αNH-(h.AM (1-52)) (disulfide 16-21) peptide: {CH3O‑PEG (5k)‑(CH2)5‑CO‑}-YRQSMNNFQGLRSFGCRFGTCTVQKLAHQIYQFTDKDKDNVAPRSKISPQGY-NH2 | 81%
18 | CH3O-PEG (20k)-(CH2)2-CH2-^αNH-(h.AM (1-52)) (disulfide 16-21) peptide: {CH3O‑PEG (20k)‑(CH2)2‑CH2‑}-YRQSMNNFQGLRSFGCRFGTCTVQKLAHQIYQFTDKDKDNVAPRSKISPQGY-NH2 | 100%
19 | CH3O-PEG (10k)-(CH2)2-CH2-^αNH-(h.AM (1-52)) (disulfide 16-21) peptide: {CH3O‑PEG (10k)‑(CH2)2‑CH2‑}-YRQSMNNFQGLRSFGCRFGTCTVQKLAHQIYQFTDKDKDNVAPRSKISPQGY-NH2 | 101%
20 | Xyl-4-branched CH3O-PEG (40k)-CH2-^αNH-(h.AM (1-52)) (disulfide 16-21) peptide: {Xyl‑4‑branched CH3O‑PEG (40k)‑CH2}-YRQSMNNFQGLRSFGCRFGTCTVQKLAHQIYQFTDKDKDNVAPRSKISPQGY-NH2 | 81%
21 | GL-3-branched CH3O-PEG (50k)-CH2-^αNH-(h.AM (1-52)) (disulfide 16-21) peptide: {GL‑3‑branched CH3O‑PEG (50k)‑CH2‑}-YRQSMNNFQGLRSFGCRFGTCTVQKLAHQIYQFTDKDKDNVAPRSKISPQGY-NH2 | 80%
22 | {CH3O‑PEG (20k)‑(CH2)2‑CH2‑}-LRSFGCRFGTCTVQKLAHQIYQFTDKDKDNVAPRSKISPQGY-NH2 (disulfide 6-11) [CH3O-PEG (20k)-(CH2)2-CH2-^αNH-(h.AM (11-52))] | 97%
23 | GL-4-branched CH3O-PEG (40k)-CH2-^αNH-(h.AM (1-52)) (disulfide 16-21) peptide: {GL‑4‑branched CH3O‑PEG (40k)‑CH2‑}-YRQSMNNFQGLRSFGCRFGTCTVQKLAHQIYQFTDKDKDNVAPRSKISPQGY-NH2 | 95%
24 | {CH3O‑PEG (20k)‑(CH2)2‑CH2‑}-CRFGTCTVQKLAHQIYQFTDKDKDNVAPRSKISPQGY-NH2 (disulfide 1-6) [CH3O-PEG (20k)-(CH2)2-CH2-^αNH-(h.AM (16-52))] | 97%
25 | Lys-2-branched CH3O-PEG (40k)-CH2-^αNH-(h.AM (1-52)) (N-terminal α-amino group alkylamine-linked to lysine skeleton-containing 2-branched CH3O-PEG (40k)-CH2-; Cys16-Cys21 disulfide; C-terminal amide) peptide: YRQSMNNFQGLRSFGCRFGTCTVQKLAHQIYQFTDKDKDNVAPRSKISPQGY | 102%
26 | CH3O-PEG (20k)-(CH2)5-CO-^αNH-(h.AM (1-52)) (disulfide 16-21) peptide: {CH3O‑PEG (20k)‑(CH2)5‑CO‑}-YRQSMNNFQGLRSFGCRFGTCTVQKLAHQIYQFTDKDKDNVAPRSKISPQGY-NH2 | 67%
27 | GL-2-branched CH3O-PEG (20k)-CO-^αNH-(h.AM (1-52)) (disulfide 16-21) peptide: {GL‑2‑branched CH3O‑PEG (20k)‑CO‑}-YRQSMNNFQGLRSFGCRFGTCTVQKLAHQIYQFTDKDKDNVAPRSKISPQGY-NH2 | 99%
28 | CH3O-PEG (40k)-(CH2)2-CH2-^αNH-(h.AM (1-52)) (disulfide 16-21) peptide: {CH3O‑PEG (40k)‑(CH2)2‑CH2‑}-YRQSMNNFQGLRSFGCRFGTCTVQKLAHQIYQFTDKDKDNVAPRSKISPQGY-NH2 | 101%
